Assay results taken from patent US20230381281A1, “PHARMACEUTICAL COMPOSITION COMPRISING GLUCAGON/GLP-1/GIP TRIPLE AGONIST OR LONG-ACTING CONJUGATE THEREOF FOR PREVENTING OR TREATING LUPUS-RELATED DISEASES” (HANMI PHARM. CO., LTD., priority 2020, published 2023).
Bridge positions count the residues as written; N and C are the ends. Square brackets hold non-standard residues; d marks the D form. Ends that are not written are not given here. * marks the point of attachment. Acetyl(2-(4-imidazolyl)) = O=C(Cc1c[nH]cn1)*; Aib = CC(C)(N)C(=O)O

T1: human GIP receptor (human, UniProt P48546 22-466)
T1 sequence (looked up): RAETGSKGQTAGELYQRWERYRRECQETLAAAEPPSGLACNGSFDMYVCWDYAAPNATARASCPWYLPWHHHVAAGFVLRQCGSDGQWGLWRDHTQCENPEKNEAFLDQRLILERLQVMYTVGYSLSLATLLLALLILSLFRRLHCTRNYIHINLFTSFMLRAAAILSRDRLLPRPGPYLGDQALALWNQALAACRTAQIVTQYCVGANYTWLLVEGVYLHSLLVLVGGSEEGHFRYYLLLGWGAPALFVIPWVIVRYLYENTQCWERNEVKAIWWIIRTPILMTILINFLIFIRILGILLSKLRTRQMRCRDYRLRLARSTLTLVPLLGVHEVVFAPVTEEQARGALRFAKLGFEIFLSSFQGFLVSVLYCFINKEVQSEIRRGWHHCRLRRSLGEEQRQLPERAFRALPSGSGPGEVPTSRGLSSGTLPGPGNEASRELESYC


Legend:
Assay in all cases: cell-based or functional assay
human GIP receptor = molecular target: T1, human GIP receptor
human GLP-1 receptor = human GLP-1 receptor (human, UniProt P43220 24-463)
human GCG receptor = human GCG receptor (human, UniProt P47871 26-477)
human GCG receptor, sequence (P47871 26-477): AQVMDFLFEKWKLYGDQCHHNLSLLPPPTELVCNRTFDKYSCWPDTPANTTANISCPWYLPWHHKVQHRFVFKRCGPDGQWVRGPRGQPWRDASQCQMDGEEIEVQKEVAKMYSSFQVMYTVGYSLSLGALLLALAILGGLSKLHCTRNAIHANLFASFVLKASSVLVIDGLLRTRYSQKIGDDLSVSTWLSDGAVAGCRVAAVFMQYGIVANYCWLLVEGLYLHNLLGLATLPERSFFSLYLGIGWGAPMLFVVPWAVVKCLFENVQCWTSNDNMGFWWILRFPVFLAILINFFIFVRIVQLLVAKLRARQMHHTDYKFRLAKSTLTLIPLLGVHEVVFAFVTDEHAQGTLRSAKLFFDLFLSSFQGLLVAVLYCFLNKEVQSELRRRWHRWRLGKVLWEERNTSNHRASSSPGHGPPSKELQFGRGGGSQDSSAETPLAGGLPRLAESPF

Binder	In vitro activity compared to native peptide (%) vs GIP (human GIP receptor)	In vitro activity compared to native peptide (%) vs GLP-1 (human GLP-1 receptor)	In vitro activity compared to native peptide (%) vs Glucagon (human GCG receptor)
Y[Aib]QGTFTSDYSKALDEKAAKEFVNWLLDHHPSSGQPPPSC (bridge 16-20) [Triple agonist of SEQ ID NO: 98]	47.1%	28.1%	8.2%
Y[Aib]QGTFTSDYSKALDEKAAKDFVNWLLDHHPSSGQPPPSC (bridge 16-20) [Triple agonist of SEQ ID NO: 99]	57.7%	20.9%	14.9%
Y[Aib]QGTFTSDYSKALDEKAAKEFVQWLLDQHPSSGQPPPSC (bridge 16-20) [Triple agonist of SEQ ID NO: 100]	118%	42.2%	12.7%
Y[Aib]QGTFTSDYSKALDEKAAKDFVNWLLDQHPSSGQPPPSC (bridge 16-20) [Triple agonist of SEQ ID NO: 102]	58%	23.3%	29.5%
{Acetyl(2-(4-imidazolyl))}-GEGTFTSDLSKYLDSRRQQLFVQWLKAGGPSSGAPPPSHG [Triple agonist of SEQ ID NO: 11]	< 0.1%	1.4%	< 0.1%
{Acetyl(2-(4-imidazolyl))}-GEGTFISDLSKYMDEQAVQLFVEWLMAGGPSSGAPPPSHG [Triple agonist of SEQ ID NO: 12]	< 0.1%	0.4%	< 0.1%
{Acetyl(2-(4-imidazolyl))}-GEGTFISDYSIQLDEIAVQDFVEWLLAQKPSSGAPPPSHG [Triple agonist of SEQ ID NO: 13]	< 0.1%	< 0.1%	< 0.1%
H[Aib]QGTFTSDVSSYLDGQAQKEFIAWLVKGC [Triple agonist of SEQ ID NO: 2]	< 0.1%	5.9%	< 0.1%
{Acetyl(2-(4-imidazolyl))}-GQGTFTSDYSIQLDEIAVRDFVEWLKNGGPSSGAPPPSHG [Triple agonist of SEQ ID NO: 14]	< 0.1%	28%	< 0.1%
{Acetyl(2-(4-imidazolyl))}-GQGTFTSDLSKQMDSEAQQLFIEWLKNGGPSSGAPPPSHG [Triple agonist of SEQ ID NO: 16]	< 0.1%	2.1%	< 0.1%
{Acetyl(2-(4-imidazolyl))}-GQGTFTSDLSKQMDEERAREFIEWLLAQKPSSGAPPPSHG [Triple agonist of SEQ ID NO: 17]	< 0.1%	0.2%	< 0.1%
{Acetyl(2-(4-imidazolyl))}-GQGTFTSDLSKQMDSERAREFIEWLKNTGPSSGAPPPSHG [Triple agonist of SEQ ID NO: 18]	< 0.1%	< 0.1%	< 0.1%
{Acetyl(2-(4-imidazolyl))}-GQGTFTSDLSIQYDSEHQRDFIEWLKDTGPSSGAPPPSHG [Triple agonist of SEQ ID NO: 19]	< 0.1%	< 0.1%	< 0.1%
{Acetyl(2-(4-imidazolyl))}-GQGTFTSDLSIQYEEEAQQDFVEWLKDTGPSSGAPPPSHG [Triple agonist of SEQ ID NO: 20]	< 0.1%	< 0.1%	< 0.1%
Y[Aib]QGTFTSDYSKYLDECRAKEFVQWLLDHHPSSGQPPPS (bridge 16-20) [Triple agonist of SEQ ID NO: 21]	22.7%	17.8%	267%
Y[Aib]QGTFTSDYSKCLDEKRAKEFVQWLLDHHPSSGQPPPS (bridge 16-20) [Triple agonist of SEQ ID NO: 22]	59.7%	20.1%	140%
Y[Aib]QGTFTSDYSKYLDECRAKEFVQWLLAQKGKKNDWKHNIT (bridge 16-20) [Triple agonist of SEQ ID NO: 23]	< 0.1%	4.01%	9.3%
H[Aib]QGTFTSDVSSYLLGQAAKQFIAWLVKGGGPSSGAPPPSC [Triple agonist of SEQ ID NO: 3]	< 0.1%	1.8%	< 0.1%
Y[Aib]QGTFTSDYSKYLDECRAKEFVQWLKNGGPSSGAPPPS (bridge 16-20) [Triple agonist of SEQ ID NO: 24]	< 0.1%	41.2%	9.3%
H[Aib]QGTFTSDCSKYLDERAAQDFVQWLLDGGPSSGAPPPS [Triple agonist of SEQ ID NO: 25]	< 0.1%	82.6%	0.1%
H[Aib]QGTFTSDCSKYLDSRAAQDFVQWLLDGGPSSGAPPPS [Triple agonist of SEQ ID NO: 26]	< 0.1%	64.5%	0.2%
H[Aib]QGTFTSDYSKYLDERACQDFVQWLLDQGGPSSGAPPPS [Triple agonist of SEQ ID NO: 27]	0.9%	83.1%	0.8%
H[Aib]QGTFTSDYSKYLDEKRAQEFVCWLLAQKGKKNDWKHNIT [Triple agonist of SEQ ID NO: 28]	< 0.1%	17.2%	1.6%
H[Aib]QGTFTSDYSKYLDEKAAKEFVQWLLNTC (bridge 16-20) [Triple agonist of SEQ ID NO: 29]	< 0.1%	38.5%	6%
H[Aib]QGTFTSDYSKYLDEKAQKEFVQWLLDTC (bridge 16-20) [Triple agonist of SEQ ID NO: 30]	0.8%	142%	0.7%
H[Aib]QGTFTSDYSKYLDEKACKEFVQWLLAQ (bridge 16-20) [Triple agonist of SEQ ID NO: 31]	2.4%	135%	2.2%
H[Aib]QGTFTSDYSKYLDEKACKDFVQWLLDGGPSSGAPPPS (bridge 16-20) [Triple agonist of SEQ ID NO: 32]	8.8%	151%	1.7%
H[Aib]QGTFTSDYSIAMDEIHQKDFVNWLLAQKC (bridge 16-20) [Triple agonist of SEQ ID NO: 33]	10.4%	24.5%	< 0.1%
